Laboratory results: patent US20200024360A1 (Janssen / Centocor, published 2020)

T1: recombinant chimpanzee PSMA extracellular domain (ECD) protein (Pan troglodytes, UniProt Q04609 44-750 (human entry))
T1 construct: also called Chimp PSMA ECD; PSMG8
T1 chain: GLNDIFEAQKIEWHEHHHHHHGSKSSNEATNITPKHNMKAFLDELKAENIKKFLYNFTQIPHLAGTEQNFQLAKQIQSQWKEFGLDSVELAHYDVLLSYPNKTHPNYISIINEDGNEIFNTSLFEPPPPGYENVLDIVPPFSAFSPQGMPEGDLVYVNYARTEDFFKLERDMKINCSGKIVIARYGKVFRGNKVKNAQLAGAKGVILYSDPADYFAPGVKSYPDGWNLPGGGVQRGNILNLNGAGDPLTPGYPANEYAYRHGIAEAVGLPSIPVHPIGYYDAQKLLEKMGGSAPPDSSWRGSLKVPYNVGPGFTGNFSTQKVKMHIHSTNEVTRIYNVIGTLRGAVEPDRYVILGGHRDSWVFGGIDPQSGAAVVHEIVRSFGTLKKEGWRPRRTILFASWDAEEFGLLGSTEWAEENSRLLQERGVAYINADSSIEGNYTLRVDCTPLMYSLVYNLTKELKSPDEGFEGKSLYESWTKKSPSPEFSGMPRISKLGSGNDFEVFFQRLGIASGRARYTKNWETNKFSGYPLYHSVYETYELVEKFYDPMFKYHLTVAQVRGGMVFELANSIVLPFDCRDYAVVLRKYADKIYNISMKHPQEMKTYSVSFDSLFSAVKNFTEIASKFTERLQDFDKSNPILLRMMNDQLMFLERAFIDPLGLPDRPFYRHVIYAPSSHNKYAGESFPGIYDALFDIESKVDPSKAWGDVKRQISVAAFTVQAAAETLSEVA

B1: PS3B27 (bispecific antibody, human IgG4 S228P, kappa, lambda, F234A L235A)
heavy 1: not shown
light 1: not shown
heavy 2: EVQLVESGGGLVQPGGSLRLSCAASGFTFNTYAMNWVRQAPGKGLEWVARIRSKYNNYATYYAASVKGRFTISRDDSKNSLYLQMNSLKTEDTAVYYCARHGNFGNSYVSWFAYWGQGTLVTVSSASTKGPSVFPLAPCSRSTSESTAALGCLVKDYFPEPVTVSWNSGALTSGVHTFPAVLQSSGLYSLSSVVTVPSSSLGTKTYTCNVDHKPSNTKVDKRVESKYGPPCPPCPAPEAAGGPSVFLFPPKPKDTLMISRTPEVTCVVVDVSQEDPEVQFNWYVDGVEVHNAKTKPREEQFNSTYRVVSVLTVLHQDWLNGKEYKCKVSNKGLPSSIEKTISKAKGQPREPQVYTLPPSQEEMTKNQVSLTCLVKGFYPSDIAVEWESNGQPENNYKTTPPVLDSDGSFLLYSKLTVDKSRWQEGNVFSCSVMHEALHNHYTQKSLSLSLGK
light 2: QTVVTQEPSLTVSPGGTVTLTCRSSTGAVTTSNYANWVQQKPGQAPRGLIGGTNKRAPGTPARFSGSLLGGKAALTLSGVQPEDEAEYYCALWYSNLWVFGGGTKLTVLGQPKAAPSVTLFPPSSEELQANKATLVCLISDFYPGAVTVAWKADSSPVKAGVETTTPSKQSNNKYAASSYLSLTPEQWKSHRSYSCQVTHEGSTVEKTVAPTECS
notes: IgG4 PAA; PSMA arm chains first, then CD3 arm (F405L, R409K); also called PSMB127 x CD3B219; PS2B27
B2: PS3B30 (bispecific antibody, human IgG4 S228P, kappa, lambda, F234A L235A)
heavy 1: not shown
light 1: not shown
heavy 2: B1 heavy 2
light 2: B1 light 2
notes: IgG4 PAA; PSMA arm chains first, then CD3 arm (F405L, R409K); also called PSMB130 x CD3B219
B3: PS3B28 (bispecific antibody, human IgG4 S228P, kappa, lambda, F234A L235A)
heavy 1: not shown
light 1: not shown
heavy 2: B1 heavy 2
light 2: B1 light 2
notes: IgG4 PAA; PSMA arm chains first, then CD3 arm (F405L, R409K); also called PSMB128 x CD3B219
B4: PS3B19 (bispecific antibody, human IgG4 S228P, kappa, lambda, F234A L235A)
heavy 1: not shown
light 1: not shown
heavy 2: B1 heavy 2
light 2: B1 light 2
notes: IgG4 PAA; PSMA arm chains first, then CD3 arm (F405L, R409K); also called PSMB119 x CD3B219
B5: PS3B22 (bispecific antibody, human IgG4 S228P, kappa, lambda, F234A L235A)
heavy 1: not shown
light 1: DIQMTQSPSSLSASVGDRVTITCRASQSIDRWLNWYQQKPGKAPKLLIYAASSLQSGVPSRFSGSGSGTDFTLTISSLQPEDFATYYCQQSPRYPLTFGQGTKVEIKRTVAAPSVFIFPPSDEQLKSGTASVVCLLNNFYPREAKVQWKVDNALQSGNSQESVTEQDSKDSTYSLSSTLTLSKADYEKHKVYACEVTHQGLSSPVTKSFNRGEC
heavy 2: B1 heavy 2
light 2: B1 light 2
notes: IgG4 PAA; PSMA arm chains first, then CD3 arm (F405L, R409K); also called PSMB122 x CD3B219; PSB22
B6: PS3B23 (bispecific antibody, human IgG4 S228P, kappa, lambda, F234A L235A)
heavy 1: not shown
light 1: not shown
heavy 2: B1 heavy 2
light 2: B1 light 2
notes: IgG4 PAA; PSMA arm chains first, then CD3 arm (F405L, R409K); also called PSMB123 x CD3B219
B7: PS3B24 (bispecific antibody, human IgG4 S228P, kappa, lambda, F234A L235A)
heavy 1: not shown
light 1: not shown
heavy 2: B1 heavy 2
light 2: B1 light 2
notes: IgG4 PAA; PSMA arm chains first, then CD3 arm (F405L, R409K); also called PSMB124 x CD3B219
B8: PS3B25 (bispecific antibody, human IgG4 S228P, kappa, lambda, F234A L235A)
heavy 1: not shown
light 1: not shown
heavy 2: B1 heavy 2
light 2: B1 light 2
notes: IgG4 PAA; also called PSMB87 x CD3B219
B9: PS3B20 (bispecific antibody, human IgG4 S228P, kappa, lambda, F234A L235A)
heavy 1: not shown
light 1: not shown
heavy 2: B1 heavy 2
light 2: B1 light 2
notes: IgG4 PAA; PSMA arm chains first, then CD3 arm (F405L, R409K); also called PSMB120 x CD3B219

Key:
[1] = biological target: T1, recombinant chimpanzee PSMA …; assay: SPR ProteOn, bsAb captured by anti-Fc
Experimental: The interactions of PSMA×CD3 bispecific mAbs with target (recombinant Chimp, PSMA) were studied by Surface Plasmon Resonance (SPR) using a ProteOn XPR36 system (BioRad). […] Approximately 4400 RU (response units) of anti-Human IgG Fc antibodies were immobilized. The kinetic experiments were performed at 25° C. in running buffer (DPBS+0.03% P20+100 μg/ml BSA). […] The association phase was monitored for 3 minutes at 50 μL/min, then followed by 15 minutes of buffer flow (dissociation phase). The chip surface was regenerated with two 18 second pulses of 100 mM Phosphoric acid (H₃PO₄, Sigma, cat #7961) at 100 μL/min.
The collected data were processed using ProteOn Manager software. First, the data was corrected for background using inter-spots. Then, double reference subtraction of the data was performed by using the buffer injection for analyte injections. The kinetic analysis of the data was performed using a Langmuir 1:1 binding model.

[2] = biological target: T1, recombinant chimpanzee PSMA …; assay: SPR Biacore 3000, bsAb captured by anti-Fc
Experimental: Binding to recombinant Chimp PSMA by Biacore. The Affinity measurements using Surface Plasmon Resonance (SPR) were performed using a Biacore 3000 optical biosensor (Biacore-GE Healthcare). A biosensor surface was prepared by coupling anti-Human IgG Fc (Jackson ImmunoResearch Laboratory, cat #109-005-098) to the carboxymethylated dextran surface of a CM-5 chip (Biacore, cat # BR-1000-12) using the manufacturer instructions for amine-coupling chemistry. Approximately 16,000 RU (response units) of anti-Human IgG Fc antibodies were immobilized in each of four flow cells. The kinetic experiments were performed at 25° C. in running buffer (DPBS+0.03% P20+[…]). Dilutions of antigen (recombinant Chimp PSMA, concentration either from 1.2-300 nM or 3.7-900 nM in a 3-fold serial dilution) were prepared in running buffer. About 100 RU of PSMA×CD3 bispecific mAbs were captured on flow cell 2 to 4 of the sensor chip. Flow cell 1 was used as reference surface. Capture of PSMA×CD3 bispecific mAb was followed by a 3 or 5-minute injection (association phase) of antigen (recombinant Chimp PSMA) at 50 μl/min, followed by 15 or 20 minutes of buffer flow (dissociation phase). The chip surface was regenerated by two 18-second injections of 100 mM Phosphoric acid (H₃PO₄, Sigma, cat #7961) at 50 μl/min.
The collected data were processed using BIAevaluation software (Biacore). First, double reference subtraction of the data was performed by subtracting the curves generated by buffer injection from the reference-subtracted curves for analyte injections. Then kinetic analysis of the data was performed using a Langmuir 1:1 binding model with global fit. The result for each PSMA×CD3 bispecific mAb was reported in the format of kₐ (On-rate), kd (Off-rate) and KD (Equilibrium dissociation constant).

Row | Binder | Kd [1] [nM] | koff [1] [s⁻¹] | kon [1] [M⁻¹ s⁻¹] | Kd [2] [nM] | koff [2] [s⁻¹] | kon [2] [M⁻¹ s⁻¹]
1 | B1 | 10.4 | 0.00176 | 170000 | 22.4 | 0.002 | 89000
2 | B2 | 22.4 | 0.00165 | 73400 | 52.3 | 0.00182 | 34800
3 | B3 | 17.4 | 0.00233 | 134000 | 30.8 | 0.00191 | 62000
4 | B4 | 23.6 | 0.000298 | 12600 | 66.3 | 0.000414 | 6240
5 | B5 | 19 | 0.00124 | 65100 | 60.4 | 0.001 | 16600
6 | B6 | 1.8 | 0.00176 | 989000 | 9.1 | 0.00122 | 134000
7 | B7 | 40.3 | 0.000252 | 6260 | 38.6 | 0.000907 | 23500
8 | B8 | 5.5 | 0.00106 | 195000 | 16.4 | 0.00108 | 65900
9 | B9 | 21.4 | 0.000378 | 17600 | 59.1 | 0.000461 | 7820
